The values that follow come from the supplement of paper PMC12764529.

Series [1] can be described thus: folding stability dG unfold from chymotrypsin proteolysis; higher = more stable. In outline: (§1)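 Bayesian fitting of sequencing counts gave K50 for each design. Unfolding free energy followed by setting this against a sequence-predicted unfolded-state K50 and a shared folded-state K50, either per protease or with trypsin and chymotrypsin combined. The designs, under 80 residues and lacking cysteine, were digested in a PA-tagged cDNA display format at 11 threefold-diluted protease concentrations and without protease, and only those with AlphaFold2 dimer inter-PAE above 15 were kept.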

The nature of series [2]: folding stability dG unfold (combined trypsin and chymotrypsin); higher = more stable. The method, boiled down:
as §1

The nature of series [3]: folding stability dG unfold from trypsin proteolysis; higher = more stable. The method, boiled down: as §1

± gives the half width of the 95% confidence interval.

Take “SAGGSAGGSNPRYRIVLPISREQLEELGLTPEQVAEAIREAFPSLSPDTRFYFPEDGNLVVVGSAGGSAGGS [r12_50_TrMRF]”: the “folding stability dG unfold” value in series [1] was determined as 1.16 ± 0.012 kcal/mol; in series [2], 1.4 ± 0.026 kcal/mol; in series [3], 1.58 ± 0.024 kcal/mol.

“SAGGSAGGSNWVEIDIPHDDGRDIKITMWPDGYMQIEYPNGKPVYEIPVPPNMSIDEIAERILSAGGSAGGS [r12_990_TrROS]”: the figures for the “folding stability dG unfold” value in series [1], in series [2] and in series [3] were 0.498 ± 0.067 kcal/mol, 0.624 ± 0.15 kcal/mol and 0.641 ± 0.045 kcal/mol, respectively.

With “SAGGSAGGSPDVVVPATLTFPLDAVAKAEFYPDGTVKVTFPDNTVALAKVEGGVVTDVRLAPASAGGSAGGS [r12_749_TrMRF]”, the “folding stability dG unfold” value came out at 0.0478 ± 0.066 kcal/mol in series [1], 0.11 ± 0.095 kcal/mol in series [2] and 0.0343 ± 0.031 kcal/mol in series [3].

In the case of “SAGGSAGGSPELKISFPGFEGAEVELDPETNIATVRVKLPDKELELKVRIDDDGITIVEVREVSAGGSAGGS [r20_60_TrMRF]”, the “folding stability dG unfold” value in series [1] is 1.86 ± 0.054 kcal/mol; in series [2] it was 1.94 ± 0.14 kcal/mol; in series [3], 1.95 ± 0.07 kcal/mol.

As for “SAGGSAGGSPETLTITVKEKPVRIEINGKVIEVKPGDTITIPKELANNIRIEVNEDGSITITPSAGGSAGGS [r20_150_TrROS_Hall]”, the “folding stability dG unfold” value in series [1] came out at 1.24 ± 0.11 kcal/mol; in series [2], 1.6 ± 0.19 kcal/mol; in series [3] it was 1.92 ± 0.2 kcal/mol.

For the sequence “SAGGSAGGSPETVTLTLTVTVKTVTLDPETGELTTTTHTVTLTLTLSKEDLEALLKSPELKKLSAGGSAGGS [r12_1015_TrROS_Hall]”, the “folding stability dG unfold” value in series [1] was 3.09 ± 0.067 kcal/mol; in series [2], 2.76 ± 0.17 kcal/mol; in series [3], 1.84 ± 0.05 kcal/mol.

For “SAGGSAGGSPGFIIRVRTWERDPKDGKWKPKRERPLTFPPDDADDFADKLNSESPNVEVEIMPSAGGSAGGS [r12_342_TrROS]”, the “folding stability dG unfold” value in series [1] is -0.259 ± 0.25 kcal/mol; in series [2], -0.0797 ± 0.15 kcal/mol; in series [3], -0.0285 ± 0.15 kcal/mol.

Consider “SAGGSAGGSPGKPKTIPVEMVFFNPEDGYFFEMRSEIYVPPDGNLQIDISIELYPVPPNAPLISAGGSAGGS [r12_116_TrROS]”, for which the figures for the “folding stability dG unfold” value in series [1], in series [2] and in series [3] were 1.46 ± 0.039 kcal/mol, 1.84 ± 0.18 kcal/mol and 2.33 ± 0.2 kcal/mol, respectively.

In the case of “SAGGSAGGSPIVVDSPEDIEKAIEEAIASGAKSIVEVGPNRVRVVFVIPGEPKVFVLELPLNGSAGGSAGGS [r12_368_TrMRF]”, the “folding stability dG unfold” value in series [1] was 1.93 ± 0.092 kcal/mol; in series [2], 1.79 ± 0.11 kcal/mol; in series [3], 1.42 ± 0.051 kcal/mol.

As for “SAGGSAGGSPLDIEIKMEFHPDHGYWEMEIKIPGNGREINIHYQYEGGKPQITSPEQILDAIKSAGGSAGGS [r20_131_TrROS]”, the “folding stability dG unfold” value is 1.5 ± 0.082 kcal/mol in series [1], 1.24 ± 0.24 kcal/mol in series [2] and 0.622 ± 0.12 kcal/mol in series [3].

Consider “SAGGSAGGSPLPYLTEDGEVQVVVRIDNSTGTTTVTLTGPDGKLLKTFSVSTDGPAFVVVRAGSAGGSAGGS [r12_960_TrMRF]”, for which the “folding stability dG unfold” value was determined as 1.92 ± 0.028 kcal/mol in series [1], 1.72 ± 0.064 kcal/mol in series [2] and 1.34 ± 0.034 kcal/mol in series [3].

As to “SAGGSAGGSPMPVIEEVPLNPVEEKPDPSSNTLTVKYPDGTYRILTKNPDGSYSFKVLPSSSISAGGSAGGS [r12_351_JUSTAS]”, the figures for the “folding stability dG unfold” value in series [1], in series [2] and in series [3] were 1.56 ± 0.098 kcal/mol, 1.71 ± 0.089 kcal/mol and 1.67 ± 0.034 kcal/mol, respectively.

“SAGGSAGGSPNDMKEVDFPIKFPKEKFKVKIWRHPDDPNRYYIRFPSNGAIFWFDPNGDIEPLSAGGSAGGS [r12_580_TrROS]”: the entries for the “folding stability dG unfold” value in series [1], in series [2] and in series [3] were 1.75 ± 0.085 kcal/mol, 1.49 ± 0.1 kcal/mol and 1.01 ± 0.056 kcal/mol, respectively.

For the sequence “SAGGSAGGSPNTIEIWIQIPPGDPEKVEEIAKKLRDEGFKDIKVDEVHRNPDDSYYVEIKITVSAGGSAGGS [r12_91_TrROS]”, the entries for the “folding stability dG unfold” value in series [1], in series [2] and in series [3] were 1.12 ± 0.025 kcal/mol, 1.42 ± 0.083 kcal/mol and 1.55 ± 0.12 kcal/mol, respectively.

As for “SAGGSAGGSPPMKTYEHWIRFDSPEQAVEEVANHIQDHFGLEIKSVEIEYDPENGWVRVKIVISAGGSAGGS [r12_265_TrROS]”, the “folding stability dG unfold” value was 3.449 ± 0.029 kcal/mol in series [1], 3.12 ± 0.14 kcal/mol in series [2] and 2.71 ± 0.075 kcal/mol in series [3].

As to “SAGGSAGGSPPPDIKVEVESYENPDGQRYYRVTITIDDGRPFDIWMPPGMSPSEAKNWLKDLLSAGGSAGGS [r12_1019_TrROS]”, the “folding stability dG unfold” value stood at 3.964 ± 0.035 kcal/mol in series [1], 3.78 ± 0.094 kcal/mol in series [2] and 3.35 ± 0.08 kcal/mol in series [3].

Consider “SAGGSAGGSPPPITIFTAYKDPEDGPYWMKRRKINPDNGNIEEEWYPADDLADHGLPPGDIFISAGGSAGGS [r12_123_TrROS]”, for which the figures for the “folding stability dG unfold” value in series [1], in series [2] and in series [3] were 0.413 ± 0.33 kcal/mol, 0.203 ± 0.2 kcal/mol and -0.566 ± 0.88 kcal/mol, respectively.

With “SAGGSAGGSPPPRFRVVVVFEDGTRREFDLTPEELVAFAEVVPDVVVEELPPGEVRITVRLPGSAGGSAGGS [r20_231_TrMRF]”, the “folding stability dG unfold” value is 3.11 ± 0.056 kcal/mol in series [1], 2.91 ± 0.1 kcal/mol in series [2] and 2.45 ± 0.081 kcal/mol in series [3].
